Residue numbers refer to the chain shown, from its start.
Target: T1, MutS (Escherichia coli, UniProt P23909 1-853)
T1 sequence: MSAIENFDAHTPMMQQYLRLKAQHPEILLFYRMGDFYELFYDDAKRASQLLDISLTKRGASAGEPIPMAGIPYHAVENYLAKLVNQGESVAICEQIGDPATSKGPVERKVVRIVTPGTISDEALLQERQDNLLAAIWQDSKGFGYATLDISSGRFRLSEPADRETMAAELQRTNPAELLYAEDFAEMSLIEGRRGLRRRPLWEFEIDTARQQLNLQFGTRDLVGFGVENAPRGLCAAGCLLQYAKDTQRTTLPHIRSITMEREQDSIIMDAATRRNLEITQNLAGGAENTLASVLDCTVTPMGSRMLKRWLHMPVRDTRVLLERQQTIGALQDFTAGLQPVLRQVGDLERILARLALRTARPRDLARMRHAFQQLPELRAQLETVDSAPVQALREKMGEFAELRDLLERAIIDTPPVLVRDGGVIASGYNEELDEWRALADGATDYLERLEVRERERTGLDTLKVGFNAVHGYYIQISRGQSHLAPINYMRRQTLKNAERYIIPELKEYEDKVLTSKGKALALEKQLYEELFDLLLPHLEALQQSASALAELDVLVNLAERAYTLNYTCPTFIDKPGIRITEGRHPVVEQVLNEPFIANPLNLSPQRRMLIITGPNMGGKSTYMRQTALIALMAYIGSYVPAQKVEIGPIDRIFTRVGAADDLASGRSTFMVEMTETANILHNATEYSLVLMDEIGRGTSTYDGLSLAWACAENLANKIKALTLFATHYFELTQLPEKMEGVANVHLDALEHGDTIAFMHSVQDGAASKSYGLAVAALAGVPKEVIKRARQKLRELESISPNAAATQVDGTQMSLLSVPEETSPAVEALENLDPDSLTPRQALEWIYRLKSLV
Assay: EMSA; 5 mM Mg2+; 20 pmol unlabeled GC duplex; 20 mM Tris-HCl pH 7.6, 50 mM KCl, 5 mM MgCl2, 1 mM DTT, 0.05 mg/ml BSA, 37 °C 15 min, 20 μl, 2 pmol labeled duplex, 20 pmol unlabeled GC duplex, 5% native PAGE
Conditions: protein: recombinant, tags: His6, chain copies: 2, label: 5'-32P (KN-2 or KN-3 strand)

B1: O6-MeG:T duplex (dsDNA)
DNA 1: GGTCGCTGGGGAATGGGAGTGGCCACGGCG
DNA 2: CGCCGTGGCCACTCTCATTCCCCAGCGACC
modifications: O6-methylguanine opposite T
In the case of B1, the Kd (O6-MeG:T pair) is reported as 120 nM.

B2: G:T duplex (dsDNA)
DNA 1: B1 DNA 1
DNA 2: B1 DNA 2
For B2, the Kd (G:T mismatch) was 75 nM.

B3: O6-EtG:C duplex (dsDNA)
DNA 1: B1 DNA 1
DNA 2: B1 DNA 2 with T15C
modifications: O6-ethylguanine opposite C
Work on B3 yielded a Kd (O6-EtG:C pair) of 220 nM.

B4: O6-MeG:C duplex (dsDNA)
DNA 1: B1 DNA 1
DNA 2: B1 DNA 2 with T15C
modifications: O6-methylguanine opposite C
B4 showed a Kd (O6-MeG:C pair) of 220 nM.

B5: O6-EtG:T duplex (dsDNA)
DNA 1: B1 DNA 1
DNA 2: B1 DNA 2
modifications: O6-ethylguanine opposite T
B5 gave a Kd (O6-EtG:T pair) of 210 nM.

From PMC2365708, “Binding of MutS protein to oligonucleotides containing a methylated or an ethylated guanine residue, and correlation with mutation frequency”
